Measured values: patent US20020168363A1, “Integrin/adhesion antagonists” (Amgen Inc., priority 2000, published 2002)

Legend:
GPIIb/IIIa = biological target: T1, GPIIb/IIIa (Homo sapiens, UniProt P05106+P08514); test: Inhibition of ruthenium-labeled human fibrinogen (fibrinogen-ru) binding to GPIIb/IIIa, solid phase binding assay; conditions: FIGS. 5A and 5B
T1 construct: The washed platelets were lysed in, 20 mM Tris-HCl pH 7.4, 140 mM NaCl, 2 mM CaCl2, 1 mM pefabloc, 3% octylglucoside; from tissue; host or cells: outdated platelets
Description: (§1) Ruthenylation of Vitronectin and Fibrinogen. Purified human vitronectin or purified human fibrinogen (Calbiochem) was dialyzed into 50 mM borate, 100 mM NaCl pH 8.0. A stock solution of ruthenium (II) tris bipyridine N-hydroxysuccinimide ester (Origen TAG® Ester, Igen Inc. Gaithersburg, Md.) was freshly prepared by adding 50 μL DMSO to 150 μg of the Origen TAG-NHS ester. Fifty microliters of the Origen TAG-NHS ester was added to one fifth molar ratio of the matrix protein. After one hour incubation at […], the reaction was quench by the addition of 50 μL of 2 M glycine. Unincorporated ruthenium and excess glycine were removed by dialysis into PBS, 0.05% NaN3. Protein concentrations were determined using Micro-BCA (Pierce, Rockford, Ill.). Origen TAG incorporation was assessed at 455 nm (e=13,700 M^−1 cm^−1). Vitronectin-Ru and Fibrinogen-Ru were stored at −70° C. until needed. […]
(§2) Solid Phase Binding Assay. […] The assay mixture was incubated at 25° C. for two hours with agitation and subsequently read on an Origen Analyzer® (Igen Inc. Gaithersburg, Md.) Non-specific binding was determined using 1 μM Vitronectin, 1 μM Fibrinogen or 5 mM EDTA. The data was prepared using a four-parameter fit by the Levenburg Marquardt algorithm (XLfit® ID Business Solutions.) Ki values were calculated using the equation of Cheng and Prusoff (1973) Biochem. Pharmacology 22: 3099-3108.

human αvβ3 = biological target: T2, human αvβ3 (Homo sapiens, UniProt P05106+P06756); test: Solid phase binding assay (Vitronectin-Ru, integrin coated paramagnetic beads); conditions: FIGS. 4A and 4B
T2 construct: tissue Chemicon International Inc. (alternative source, catalogue number not given); host or cells: placenta
Description: as §1, §2

HT1080 cells = test: Effect on the growth of HT1080 cells; type: cell-based, human
Description: Laminin activity assay: Apoptosis of HT-1080 human fibrosarcoma cells. HT-1080 cells from a human fibrosarcoma are cultured in DMEM supplemented with 10% fetal bovine serum, 100 μg/ml streptomycin and 100 units/ml penicillin. The culture is started at a density of 5×10^4 cells per plate. The Fc-peptides (Fc-YIGSR, Fc-(YIGSR)2, YIGSR-Fc, or (YIGSR)2-Fc)) at various concentrations are added to each plate, and after 16 hours the cells are harvested for evaluation of apoptosis with crystal violet solution at 560 nm absorbance. The DNA fragmentation analysis is also carried out to assess the degree of apoptosis in a 1.5% agarose gel and visualized by ethidium bromide staining.
Two additional laminin peptides, (YIGSR)3 and (YIGSR)5 from Table 6 herein, were fused to human IgG1. Those fusion peptides were designated as laminin-3 ((YIGSR)3-Fc) and laminin-5 ((YIGSR)5-Fc). The purified peptide-Fc fusions were examined for their effect on the growth of HT1080 cells as described in Example 1. […] A 50-fold enhancement was seen after it was fused to human IgG1.

T2 sequence (P06756 31-889 limits assumed): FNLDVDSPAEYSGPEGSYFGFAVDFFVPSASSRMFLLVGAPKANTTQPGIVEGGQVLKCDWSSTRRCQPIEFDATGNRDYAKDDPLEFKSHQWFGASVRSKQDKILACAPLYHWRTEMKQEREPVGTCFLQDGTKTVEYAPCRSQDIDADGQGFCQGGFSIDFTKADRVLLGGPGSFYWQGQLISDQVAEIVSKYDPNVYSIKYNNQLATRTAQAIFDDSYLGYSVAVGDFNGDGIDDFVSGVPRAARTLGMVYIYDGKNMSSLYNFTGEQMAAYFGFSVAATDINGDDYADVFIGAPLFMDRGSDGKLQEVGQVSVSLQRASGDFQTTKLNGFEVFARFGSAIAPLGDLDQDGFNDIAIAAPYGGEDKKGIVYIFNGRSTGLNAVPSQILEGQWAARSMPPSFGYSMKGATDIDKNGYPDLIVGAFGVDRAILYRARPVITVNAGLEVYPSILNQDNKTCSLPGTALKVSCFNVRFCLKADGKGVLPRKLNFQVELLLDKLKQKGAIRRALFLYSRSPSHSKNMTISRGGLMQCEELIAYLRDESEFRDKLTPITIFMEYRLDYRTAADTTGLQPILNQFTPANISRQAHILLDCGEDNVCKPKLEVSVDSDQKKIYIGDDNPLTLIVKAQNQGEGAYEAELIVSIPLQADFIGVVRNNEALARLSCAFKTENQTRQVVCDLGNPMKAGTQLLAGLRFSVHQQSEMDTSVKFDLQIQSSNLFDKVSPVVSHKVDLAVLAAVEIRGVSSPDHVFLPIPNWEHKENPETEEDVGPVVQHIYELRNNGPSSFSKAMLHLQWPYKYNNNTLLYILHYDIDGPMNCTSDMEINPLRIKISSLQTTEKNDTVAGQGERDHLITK
T2 sequence (P06756 891-1048 partner limits assumed): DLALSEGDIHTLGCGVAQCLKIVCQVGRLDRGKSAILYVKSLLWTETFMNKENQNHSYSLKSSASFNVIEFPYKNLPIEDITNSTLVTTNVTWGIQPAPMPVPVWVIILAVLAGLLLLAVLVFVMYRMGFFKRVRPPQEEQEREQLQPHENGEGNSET
T2 sequence (P05106 27-788): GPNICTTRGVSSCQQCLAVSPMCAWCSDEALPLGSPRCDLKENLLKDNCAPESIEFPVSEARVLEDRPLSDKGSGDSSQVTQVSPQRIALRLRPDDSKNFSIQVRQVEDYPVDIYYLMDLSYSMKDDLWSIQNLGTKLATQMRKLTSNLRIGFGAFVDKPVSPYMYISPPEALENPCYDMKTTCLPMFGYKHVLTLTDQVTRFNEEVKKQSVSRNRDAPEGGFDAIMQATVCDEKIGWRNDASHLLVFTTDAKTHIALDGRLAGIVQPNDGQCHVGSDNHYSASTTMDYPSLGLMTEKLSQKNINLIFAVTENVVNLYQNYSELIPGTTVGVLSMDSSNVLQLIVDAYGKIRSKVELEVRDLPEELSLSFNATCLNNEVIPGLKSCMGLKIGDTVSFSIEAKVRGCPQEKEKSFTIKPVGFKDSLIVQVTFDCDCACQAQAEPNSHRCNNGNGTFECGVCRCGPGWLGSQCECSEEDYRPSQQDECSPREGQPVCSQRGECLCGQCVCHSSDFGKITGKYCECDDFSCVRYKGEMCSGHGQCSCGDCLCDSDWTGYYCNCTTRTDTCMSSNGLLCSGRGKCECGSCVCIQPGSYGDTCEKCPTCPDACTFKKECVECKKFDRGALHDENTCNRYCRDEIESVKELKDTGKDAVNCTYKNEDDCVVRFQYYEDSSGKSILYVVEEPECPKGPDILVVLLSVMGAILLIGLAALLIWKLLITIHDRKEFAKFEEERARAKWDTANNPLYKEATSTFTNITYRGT

Substance | inhibition of fibrinogen-ru binding to GPIIb/IIIa (GPIIb/IIIa) | binding to human αvβ3 (human αvβ3) | IC100 (HT1080 cells)
Echistatin-Fc: echistatin fused via a 5 glycine linker to the C-terminus of the Fc portion of human IgG1 (SEQ ID NO: 109) | inhibition | binds with high affinity | –
YIGSRYIGSRYIGSR [(YIGSR)3] | – | – | 2.9 µM
